Non-standard residues stand in square brackets, D forms with d. Hyp = O=C(O)[C@@H]1C[C@@H](O)CN1
Tests used:
[1] = target: the molecule itself; experiment: AUC; sedimentation velocity, 50,000 rpm, 20 °C, 137 mM PBS pH 7.4 or 20 mM L-histidine pH 6.0 in H2O (10 peptides, 0.2-2.5 mg/ml) and 20 mM L-histidine in 2H2O (six peptides, 0.75-4 mg/ml); c(s) analysis with SEDFIT; peptides equilibrated for at least 48 h at room temperature to assemble into triple helices
[2] = target: the molecule itself; experiment: circular dichroism; spectra 190-260 nm and melting curves at 226 nm from 0 to 70 °C, average heating rate 0.1 °C/min

| Protein | binding result [1] | binding result [2] |
| --- | --- | --- |
| Ac-P[Hyp]GP[Hyp]GP[Hyp]GP[Hyp]GP[Hyp]GE[Hyp]GQGLRGP[Hyp]GP[Hyp]GP[Hyp]G-NH2 (SMILES CC(=O)N1CCC[C@H]1C(=O)N1C[C@H](O)C[C@H]1C(=O)NCC(=O)N1CCC[C@H]1C(=O)N1C[C@H](O)C[C@H]1C(=O)NCC(=O)N1CCC[C@H]1C(=O)N1C[C@H](O)C[C@H]1C(=O)NCC(=O)N1CCC[C@H]1C(=O)N1C[C@H](O)C[C@H]1C(=O)NCC(=O)N1CCC[C@H]1C(=O)N1C[C@H](O)C[C@H]1C(=O)NCC(=O)N[C@@H](CCC(=O)O)C(=O)N1C[C@H](O)C[C@H]1C(=O)NCC(=O)N[C@@H](CCC(N)=O)C(=O)NCC(=O)N[C@@H](CC(C)C)C(=O)N[C@@H](CCCNC(=N)N)C(=O)NCC(=O)N1CCC[C@H]1C(=O)N1C[C@H](O)C[C@H]1C(=O)NCC(=O)N1CCC[C@H]1C(=O)N1C[C@H](O)C[C@H]1C(=O)NCC(=O)N1CCC[C@H]1C(=O)N1C[C@H](O)C[C@H]1C(=O)NCC(N)=O, (POG)5 written out; (POG)3 written out; Homotrimeric collagen triple helix; form used in AUC, SAXS and SANS; The CD and DSC runs used a form with one POG triplet fewer) [MBL-E (MBL EOG) collagen peptide, Ac-(POG)5-EOGQGLRG-(POG)3-NH2] | binds | – |
| Ac-P[Hyp]GP[Hyp]GP[Hyp]GP[Hyp]GP[Hyp]GEPGQGLRGP[Hyp]GP[Hyp]GP[Hyp]GP[Hyp]GP[Hyp]G-NH2 (SMILES CC(=O)N1CCC[C@H]1C(=O)N1C[C@H](O)C[C@H]1C(=O)NCC(=O)N1CCC[C@H]1C(=O)N1C[C@H](O)C[C@H]1C(=O)NCC(=O)N1CCC[C@H]1C(=O)N1C[C@H](O)C[C@H]1C(=O)NCC(=O)N1CCC[C@H]1C(=O)N1C[C@H](O)C[C@H]1C(=O)NCC(=O)N1CCC[C@H]1C(=O)N1C[C@H](O)C[C@H]1C(=O)NCC(=O)N[C@@H](CCC(=O)O)C(=O)N1CCC[C@H]1C(=O)NCC(=O)N[C@@H](CCC(N)=O)C(=O)NCC(=O)N[C@@H](CC(C)C)C(=O)N[C@@H](CCCNC(=N)N)C(=O)NCC(=O)N1CCC[C@H]1C(=O)N1C[C@H](O)C[C@H]1C(=O)NCC(=O)N1CCC[C@H]1C(=O)N1C[C@H](O)C[C@H]1C(=O)NCC(=O)N1CCC[C@H]1C(=O)N1C[C@H](O)C[C@H]1C(=O)NCC(=O)N1CCC[C@H]1C(=O)N1C[C@H](O)C[C@H]1C(=O)NCC(=O)N1CCC[C@H]1C(=O)N1C[C@H](O)C[C@H]1C(=O)NCC(N)=O, (POG)5 written out; Homotrimeric collagen triple helix) [MBL-12 (12 triplets) collagen peptide, Ac-(POG)5-EPGQGLRG-(POG)5-NH2] | – | binds |
| Ac-P[Hyp]GP[Hyp]GP[Hyp]GP[Hyp]GEPGQGLRGP[Hyp]GP[Hyp]GP[Hyp]G-NH2 (SMILES CC(=O)N1CCC[C@H]1C(=O)N1C[C@H](O)C[C@H]1C(=O)NCC(=O)N1CCC[C@H]1C(=O)N1C[C@H](O)C[C@H]1C(=O)NCC(=O)N1CCC[C@H]1C(=O)N1C[C@H](O)C[C@H]1C(=O)NCC(=O)N1CCC[C@H]1C(=O)N1C[C@H](O)C[C@H]1C(=O)NCC(=O)N[C@@H](CCC(=O)O)C(=O)N1CCC[C@H]1C(=O)NCC(=O)N[C@@H](CCC(N)=O)C(=O)NCC(=O)N[C@@H](CC(C)C)C(=O)N[C@@H](CCCNC(=N)N)C(=O)NCC(=O)N1CCC[C@H]1C(=O)N1C[C@H](O)C[C@H]1C(=O)NCC(=O)N1CCC[C@H]1C(=O)N1C[C@H](O)C[C@H]1C(=O)NCC(=O)N1CCC[C@H]1C(=O)N1C[C@H](O)C[C@H]1C(=O)NCC(N)=O, (POG)4 written out; (POG)3 written out; Homotrimeric collagen triple helix) [MBL-N (MBL native) collagen peptide, Ac-(POG)4-EPGQGLRG-(POG)3-NH2] | – | binds |
| Ac-P[Hyp]GP[Hyp]GP[Hyp]GITGARGLAGP[Hyp]GP[Hyp]GP[Hyp]GP[Hyp]G-NH2 (SMILES CC[C@H](C)[C@H](NC(=O)CNC(=O)[C@@H]1C[C@@H](O)CN1C(=O)[C@@H]1CCCN1C(=O)CNC(=O)[C@@H]1C[C@@H](O)CN1C(=O)[C@@H]1CCCN1C(=O)CNC(=O)[C@@H]1C[C@@H](O)CN1C(=O)[C@@H]1CCCN1C(C)=O)C(=O)N[C@H](C(=O)NCC(=O)N[C@@H](C)C(=O)N[C@@H](CCCNC(=N)N)C(=O)NCC(=O)N[C@@H](CC(C)C)C(=O)N[C@@H](C)C(=O)NCC(=O)N1CCC[C@H]1C(=O)N1C[C@H](O)C[C@H]1C(=O)NCC(=O)N1CCC[C@H]1C(=O)N1C[C@H](O)C[C@H]1C(=O)NCC(=O)N1CCC[C@H]1C(=O)N1C[C@H](O)C[C@H]1C(=O)NCC(=O)N1CCC[C@H]1C(=O)N1C[C@H](O)C[C@H]1C(=O)NCC(N)=O)[C@@H](C)O, (POG)3 written out; Homotrimeric collagen triple helix; also called Type III T3-785 peptide) [T3-785 collagen peptide, Ac-(POG)3-ITGARGLAGPOG-(POG)3-NH2] | binds | – |
